Measured values as given in PMC3642088, “Phosphorylation of CDK9 at Ser175 Enhances HIV Transcription and Is a Marker of Activated P-TEFb in CD4^+ T Lymphocytes” (PLoS Pathogens, 2013).

Legend:
[1] = target: FLAG-tagged CDK9 (293T cells) (human) (UniProt P50750); test: co-IP; anti-FLAG IP from 293T cells stably expressing FLAG-tagged CDK9, with or without transiently transfected HA-tagged Tat, with or without PMA for 1 hr or 2 hrs, Western blot
[2] = target: Cyclin T1 (CycT1, hCycT1) (UniProt O60563); test: anti-FLAG co-IP, Western blot; details: reference: wild type
Tat = test: anti-FLAG co-IP, Western blot; details: reference: wild type; sites S175
BRD4 = BRD4 (UniProt O60885); test: anti-FLAG co-IP, Western blot; details: reference: wild type
FLAG-CDK9 S175D (human) [3] = target: FLAG-CDK9 S175D (human) (UniProt P50750); test: co-IP; anti-FLAG IP of FLAG-CDK9 wildtype or mutants from latently infected Jurkat T-cells induced for 16 hr with TNF-α to express Tat, Western blot for BRD4, Tat and CycT1; levels normalised to total CDK9, three experiments
FLAG-CDK9 S175A (human) = FLAG-CDK9 S175A (human) (UniProt P50750); test: as above
FLAG-CDK9 S175D (human) [4] = target: FLAG-CDK9 S175D (human) (UniProt P50750)
FLAG-HEXIM1 = FLAG-HEXIM1 (UniProt O94992); test: co-IP; anti-FLAG IP of FLAG-HEXIM1 from whole cell extracts of 2D10 cells, unstimulated or PMA for 1 h with or without U0126, FLAG peptide elution, Western blot
FLAG-CDK9 T186A = target: T1, FLAG-CDK9 T186A (human, UniProt P50750 1-372, T186A); test: co-IP; anti-FLAG M2 agarose IP of FLAG-CDK9 wildtype or mutants from whole cell extracts (lysis buffer A) of Jurkat 2D10 cells, FLAG peptide elution, Western blot; densitometry normalised to total immunoprecipitated CDK9, five experiments; details: partners not purified
T1 construct: also called T186A CDK9

FLAG-CDK9 T186D = target: T2, FLAG-CDK9 T186D (human, UniProt P50750 1-372, T186D); test: as above; details: partners not purified
T2 construct: also called T186D CDK9

FLAG-CDK9 S175D = target: T3, FLAG-CDK9 S175D (human, UniProt P50750 1-372, S175D); test: as above; details: partners not purified
T3 construct: also called S175D CDK9; Ser175Asp

FLAG-CDK9 S175A = target: T4, FLAG-CDK9 S175A (human, UniProt P50750 1-372, S175A); test: as above; details: partners not purified
T4 construct: also called S175A CDK9; Ser175Ala

HA-tagged Tat (from UniProt P04608 1-86) (natural protein)
percent increase of Tat associated with CDK9 after 1 hr of PMA [1]: 12% | percent of HEXIM1 released from FLAG-CDK9 on expression of HA-Tat [1]: 71% | percent of LARP7 released from FLAG-CDK9 on expression of HA-Tat [1]: 82%

CDK9 (FLAG-CDK9 isoform 1) (from UniProt P50750) S175A
percent of reference ([2]; sites S175): 98.9% | percent of reference (Tat): 59.2% | percent of reference (BRD4; sites S175): 1.9%

HIV Tat H13L (from UniProt P04608 1-86) (natural protein)
percent of wildtype association (FLAG-CDK9 S175D (human) [3]): 109% | percent of wildtype association (FLAG-CDK9 S175A (human)): 59.2% | CDK9 kinase activity of the affinity purified FLAG-CDK9 complex in the in vitro RNAP II CTD kinase assay, against wildtype CDK9 (FLAG-CDK9 S175D (human) [4]): 159% | CDK9 kinase activity of the affinity purified FLAG-CDK9 complex in the in vitro autophosphorylation assay, against wildtype CDK9 (FLAG-CDK9 S175D (human) [4]): 117%

endogenous CDK9 (from UniProt P50750 1-372) (enzyme)
percent reduction of association after PMA for 1 h (FLAG-HEXIM1): 30%

CDK9 (FLAG-CDK9 isoform 1) (from UniProt P50750) T186D
percent of reference ([2]; sites T186): 49.4% | percent of reference (BRD4; sites T186): 61.6%

CDK9 (FLAG-CDK9 isoform 1) (from UniProt P50750) S175D
percent of reference ([2]; sites S175): 78.9%

B1: HEXIM1 (natural protein, human (endogenous in Jurkat), UniProt O94992 1-359, looked up)
chain: MAEPFLSEYQHQPQTSNCTGAAAVQEELNPERPPGAEERVPEEDSRWQSRAFPQLGGRPGPEGEGSLESQPPPLQTQACPESSCLREGEKGQNGDDSSAGGDFPPPAEVEPTPEAELLAQPCHDSEASKLGAPAAGGEEEWGQQQRQLGKKKHRRRPSKKKRHWKPYYKLTWEEKKKFDEKQSLRASRIRAEMFAKGQPVAPYNTTQFLMDDHDQEEPDLKTGLYSKRAAAKSDDTSDDDFMEEGGEEDGGSDGMGGDGSEFLQRDFSETYERYHTESLQNMSKQELIKEYLELEKCLSRMEDENNRLRLESKRLGGDDARVRELELELDRLRAENLQLLTENELHRQQERAPLSKFGD
notes: source: endogenous, Jurkat T-cell whole cell extract
percent reduction of co-precipitation against wildtype CDK9 (FLAG-CDK9 T186A): > 99% | percent reduction of co-precipitation against wildtype CDK9 (FLAG-CDK9 T186D): > 99% | percent co-immunoprecipitated against wildtype CDK9 (FLAG-CDK9 S175D): 67.5% | percent co-immunoprecipitated against wildtype CDK9 (FLAG-CDK9 S175A): > 90%

B2: LARP7 (natural protein, human (endogenous in Jurkat), UniProt Q4G0J3 1-582, looked up)
chain: METESGNQEKVMEEESTEKKKEVEKKKRSRVKQVLADIAKQVDFWFGDANLHKDRFLREQIEKSRDGYVDISLLVSFNKMKKLTTDGKLIARALRSSAVVELDLEGTRIRRKKPLGERPKDEDERTVYVELLPKNVNHSWIERVFGKCGNVVYISIPHYKSTGDPKGFAFVEFETKEQAAKAIEFLNNPPEEAPRKPGIFPKTVKNKPIPALRVVEEKKKKKKKKGRMKKEDNIQAKEENMDTSNTSISKMKRSRPTSEGSDIESTEPQKQCSKKKKKRDRVEASSLPEVRTGKRKRSSSEDAESLAPRSKVKKIIQKDIIKEASEASKENRDIEISTEEEKDTGDLKDSSLLKTKRKHKKKHKERHKMGEEVIPLRVLSKSEWMDLKKEYLALQKASMASLKKTISQIKSESEMETDSGVPQNTGMKNEKTANREECRTQEKVNATGPQFVSGVIVKIISTEPLPGRKQVRDTLAAISEVLYVDLLEGDTECHARFKTPEDAQAVINAYTEINKKHCWKLEILSGDHEQRYWQKILVDRQAKLNQPREKKRGTEKLITKAEKIRLAKTQQASKHIRFSEYD
notes: as for B1
percent reduction of co-precipitation against wildtype CDK9 (FLAG-CDK9 T186A): > 99% | percent reduction of co-precipitation against wildtype CDK9 (FLAG-CDK9 T186D): > 99% | percent co-immunoprecipitated against wildtype CDK9 (FLAG-CDK9 S175D): 77.2% | percent co-immunoprecipitated against wildtype CDK9 (FLAG-CDK9 S175A): > 90%
